The values that follow come from patent US20210340273A1 (INHLBRX, published 2021).

This test has as its target T1, human 5T4 (trophoblast glycoprotein), endogenous on the cell surface (human, UniProt Q13641 32-420).
T1 construct: also called TPBG; 5T4 oncofetal antigen
T1 sequence: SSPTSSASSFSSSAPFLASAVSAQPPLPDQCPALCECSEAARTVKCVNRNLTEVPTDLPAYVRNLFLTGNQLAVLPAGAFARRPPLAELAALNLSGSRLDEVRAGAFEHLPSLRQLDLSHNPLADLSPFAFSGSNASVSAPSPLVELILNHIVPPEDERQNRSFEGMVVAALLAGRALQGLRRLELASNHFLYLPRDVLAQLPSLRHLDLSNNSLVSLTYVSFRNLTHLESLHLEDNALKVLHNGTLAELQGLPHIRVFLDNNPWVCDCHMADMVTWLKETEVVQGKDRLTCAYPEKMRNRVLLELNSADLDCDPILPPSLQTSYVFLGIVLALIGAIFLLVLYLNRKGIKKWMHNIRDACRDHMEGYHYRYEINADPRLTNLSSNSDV
Description: flow cytometry (FL4H median), sdAb-Fc titrated on 5T4-positive T47D cells. As to the method:
Specificity and relative affinity were assessed for purified sdAb-Fcs on 5T4-expressing cells. Binding of 5T4-sdAb-Fc fusion proteins was assessed by flow cytometry using 5T4-expressing cells. A titration series of the fusion protein was incubated with the 5T4-expressing cell lines (approximately 2.5×10⁴ to 5×10⁴ cells/well) for 30 minutes at 4 degrees Celsius in FACS Buffer (PBS 1% BSA, 0.1% NaN₃ pH 7.4) in 96 well plates. Following three wash steps in FACS buffer, an APC-conjugated anti-human Fcγ specific secondary antibody (Jackson ImmunoResearch) was added and incubated for 30 minutes at 4 degrees Celsius. Following three additional wash steps in FACS buffer bound antibody was detected via flow cytometry (IQue Intellicyte).
Humanized variant of the 5T4 sdAbs were tested for their ability to bind 5T4 expressing cells substantially as described in Example 2, and binding was compared to the parental sdAb. 5T4 expressing T47D cells were used in these studies. Results are shown in FIGS. 2A-2F, which confirm binding of the humanized variants. In some cases, binding was increased compared to the parental sdAb.
On the technique in general: Flow cytometry measures light scatter and fluorescence of single cells or particles in a stream.

B1: hz16G10v1 sdAb-Fc (Fc fusion)
chain: EVQLVESGGGEVQPGGSLRLSCAASGRPFSSSAMGWFRQAPGKGRETVSAVSRNGGSSYYAESVKGRFTISRDNAKNTLYLQMSSLRAEDTAVYYCAARSAAYSRSSETYTEKHDYTYWGQGTLVTVKP
notes: Humanized variant of 16G10, linked to a human Fc; not shown: human Fc
A word on the EC50 (read off the curve): it is the concentration that produces a half-maximal response. Low readings indicate higher potency in that assay, high ones lower potency in that assay. As for B1, the “EC50 (read off the curve)” value was roughly 2 nM.

B2: hz16G10v2 sdAb-Fc (Fc fusion)
chain: EVQLVESGGGEVQPGGSLRLSCAASGRPFSSSAMGWFRQAPGKERETVAAVSRNGGSSYYAESVKGRFTISRDNAKNTLYLQMSSLRAEDTAVYYCAARSAAYSRSSETYTEKHDYTYWGQGTLVTVKP
notes: as for B1
On to B2, for which the “EC50 (read off the curve)” value was roughly 2 nM.

B3: hz16G10v5 sdAb-Fc (Fc fusion)
chain: EVQLVESGGGEVQPGGSLRLSCAASGRPFSSSAMGWFRQAPGKERETVAAVSRGGGSSYYAESVKGRFTISRDNAKNTVYLQMSSLRAEDTAVYYCAARSAAYSRSSETYTEKHDYTYWGQGTLVTVKP
notes: as for B1
With B3, the “EC50 (read off the curve)” value was roughly 5 nM.

B4: hz16G10v6 sdAb-Fc (Fc fusion)
chain: EVQLVESGGGEVQPGGSLRLSCAASGRPFSSSAMGWFRQAPGKERETVAAVSRNAGSSYYAESVKGRFTISRDNAKNTVYLQMSSLRAEDTAVYYCAARSAAYSRSSETYTEKHDYTYWGQGTLVTVKP
notes: as for B1
For B4, the binding result is on record as “binds”.

B5: hz16G10v3 sdAb-Fc (Fc fusion)
chain: EVQLVESGGGEVQPGGSLRLSCAASGRPFSSSAMGWFRQAPGKERETVAAVSRNGGSSYYAESVKGRFTISRDNAKNTVYLQMSSLRAEDTAVYYCAARSAAYSRSSETYTEKHDYTYWGQGTLVTVKP
notes: as for B1
In the case of B5, the “EC50 (read off the curve)” value was roughly 2 nM.

B6: hz16G10v9 sdAb-Fc (Fc fusion)
chain: EVQLVESGGGEVQPGGSLRLSCAASGRPFSSSAMGWFRQAPGKERETVAAVSRNGGSSYYAESVKGRFTISRDNDKNTVYLQMSSLRAEDTAVYYCAARSAAYSRSSETYTEKHDYTYWGQGTLVTVKP
notes: as for B1
Consider B6, for which the binding result was “binds”.

B7: hz16G10v4 sdAb-Fc (Fc fusion)
chain: EVQLVESGGGEVQPGGSLRLSCAASGRPFSSSAMGWFRQAPGKERETVAAVSRQGGSSYYAESVKGRFTISRDNAKNTVYLQMSSLRAEDTAVYYCAARSAAYSRSSETYTEKHDYTYWGQGTLVTVKP
notes: as for B1
With B7, the “EC50 (read off the curve)” value is roughly 9 nM.

B8: hz16G10v8 sdAb-Fc (Fc fusion)
chain: EVQLVESGGGEVQPGGSLRLSCAASGRPFSSSAMGWFRQAPGKERETVAAVSRNGGSSYYADFVKGRFTISRDNAKNTVYLQMSSLRAEDTAVYYCAARSAAYSRSSETYTEKHDYTYWGQGTLVTVKP
notes: as for B1
On to B8, for which the binding result was “binds”.

B9: hz12E9v4 sdAb-Fc (Fc fusion)
chain: EVQLVESGGGEVQPGGSLRLSCAASRRPFSSKTMAWFRQAPGKEREFVAAVRWIGGATRYTESVKGRFTISRDNAKNTVYLQMSSLRAEDTAVYYCAAGQAWGTKFTDYSDWGQGTLVTVKP
notes: Humanized variant of 12E9, linked to a human Fc; not shown: human Fc
With B9, the “EC50 (read off the curve)” value was roughly 0.2 nM.

B10: hz12E9v2 sdAb-Fc (Fc fusion)
chain: EVQLVESGGGEVQPGGSLRLSCAASRRPFSSKTMAWFRQAPGKEREFVAAVRWIGGATRYAESVKGRFTISRDNAKNTLYLQMSSLRAEDTAVYYCAAGQAWGTKFTDYSDWGQGTLVTVKP
notes: as for B9
Take B10: the “EC50 (read off the curve)” value was roughly 0.2 nM.

B11: hz12E9v6 sdAb-Fc (Fc fusion)
chain: EVQLVESGGGEVQAGGSLRLSCAASRRPFSSKTMAWFRQTPGKEREFVAAVRWIGGATRYAESVKGRFTISRDNAKNTVYLQMSSLRAEDTAVYYCAAGQAWGTKFTDYSDWGQGTLVTVKP
notes: as for B9
With B11, the binding result is “binds”.

B12: hz12E9v3 sdAb-Fc (Fc fusion)
chain: EVQLVESGGGEVQPGGSLRLSCAASRRPFSSKTMAWFRQAPGKEREFVAAVRWIGGATRYAESVKGRFTISRDNAKNTVYLQMSSLRAEDTAVYYCAAGQAWGTKFTDYSDWGQGTLVTVKP
notes: as for B9
With B12, the “EC50 (read off the curve)” value was roughly 0.2 nM.

B13: hz12E9v1 sdAb-Fc (Fc fusion)
chain: EVQLVESGGGEVQPGGSLRLSCAASRRPFSSKTMAWFRQAPGKGREFVAAVRWIGGATRYAESVKGRFTISRDNAKNTLYLQMSSLRAEDTAVYYCAAGQAWGTKFTDYSDWGQGTLVTVKP
notes: as for B9
In the case of B13, the binding result is “binds”.

B14: hz14B5v4 sdAb-Fc (Fc fusion)
chain: EVQLVESGGGEVQPGGSLRLSCAASERPFGTYAMGWFRQAPGKERDLVAAVSRNGGASQYAESVKGRFTISRDNAKNTVYLQMSSLRAEDTAVYYCAARSAAYSRSSEVYTGKDEYYYWGQGTLVTVKP
notes: Humanized variant of 14B5, linked to a human Fc; not shown: human Fc
Take B14: the binding result is given as “binds”.

B15: hz14B5v10 sdAb-Fc (Fc fusion)
chain: EVQLVESGGGEVQPGGSLRLSCAASERPFGTYAMGWFRQAPGKERDLVAAVSRNGGASQYGESVKGRFTISRDNAKNTMYLQMSSLRAEDTAVYYCAARSAAYSRSSEVYTGKDEYYYWGQGTLVTVKP
notes: Humanized variant of 14B5, linked to a human Fc; also called hz14B510; not shown: human Fc
Consider B15, for which the binding result was “binds”.

B16: hz14B5v5 sdAb-Fc (Fc fusion)
chain: EVQLVESGGGEVQPGGSLRLSCAASERPFGTYAMGWFRQAPGKERDLVAAVSRNAGASQYAESVKGRFTISRDNAKNTMYLQMSSLRAEDTAVYYCAARSAAYSRSSEVYTGKDEYYYWGQGTLVTVKP
notes: as for B14
In the case of B16, the binding result is reported as “binds”.

B17: hz14B5v6 sdAb-Fc (Fc fusion)
chain: EVQLVESGGGEVQPGGSLRLSCAASERPFGTYAMGWFRQAPGKERDLVAAVSRNTGASQYAESVKGRFTISRDNAKNTMYLQMSSLRAEDTAVYYCAARSAAYSRSSEVYTGKDEYYYWGQGTLVTVKP
notes: as for B14
For B17, the binding result is reported as “binds”.

B18: hz14B5v9 sdAb-Fc (Fc fusion)
chain: EVQLVESGGGEVQPGGSLRLSCAASERPFGTYAMGWFRQAPGKERDLVAAVSRNGGASQYGDSVKGRFTISRDNAKNTMYLQMSSLRAEDTAVYYCAARSAAYSRSSEVYTGKDEYYYWGQGTLVTVKP
notes: as for B14
With B18, the binding result was “binds”.

B19: hz14B5v1 sdAb-Fc (Fc fusion)
chain: EVQLVESGGGEVQPGGSLRLSCAASERPFGTYAMGWFRQAPGKGRDLVSAVSRNGGASQYAESVKGRFTISRDNAKNTLYLQMSSLRAEDTAVYYCAARSAAYSRSSEVYTGKDEYYYWGQGTLVTVKP
notes: as for B14
Regarding B19, the binding result is given as “binds”.

B20: hz14B5v8 sdAb-Fc (Fc fusion)
chain: EVQLVESGGGEVQPGGSLRLSCAASERPFGTYAMGWFRQAPGKERDLVAAVSRGGGASQYAESVKGRFTISRDNAKNTMYLQMSSLRAEDTAVYYCAARSAAYSRSSEVYTGKDEYYYWGQGTLVTVKP
notes: as for B14
On to B20, for which the “EC50 (read off the curve)” value was roughly 2 nM.

B21: hz14B5v7 sdAb-Fc (Fc fusion)
chain: EVQLVESGGGEVQPGGSLRLSCAASERPFGTYAMGWFRQAPGKERDLVAAVSRQGGASQYAESVKGRFTISRDNAKNTMYLQMSSLRAEDTAVYYCAARSAAYSRSSEVYTGKDEYYYWGQGTLVTVKP
notes: as for B14
B21: the “EC50 (read off the curve)” value is roughly 2 nM.

B22: hz14B5v3 sdAb-Fc (Fc fusion)
chain: EVQLVESGGGEVQPGGSLRLSCAASERPFGTYAMGWFRQAPGKERDLVAAVSRNGGASQYAESVKGRFTISRDNAKNTMYLQMSSLRAEDTAVYYCAARSAAYSRSSEVYTGKDEYYYWGQGTLVTVKP
notes: as for B14
B22: the binding result is “binds”.
